Results: patent US20200377609A1

Columns and labels:
[1] = biological target: BCMA-AM1; test: flow cytometry; supernatant on CAR-transduced Jurkat cells (panel BCMA-AM1), FITC goat anti-rabbit F(ab')2 detection
[2] = biological target: anti-BCMA CAR; test: flow cytometry; supernatant on CAR-transduced Jurkat cells (panel BCMA WT), FITC goat anti-rabbit F(ab')2 detection
[3] = biological target: CAR-2; test: flow cytometry; clonal supernatant on control CAR-2 T cells, FITC goat anti-rabbit F(ab')2 detection
[4] = biological target: BCMA-AM2; test: flow cytometry; supernatant on CAR-transduced Jurkat cells (panel BCMA-AM2), FITC goat anti-rabbit F(ab')2 detection
[5] = biological target: anti-BCMA CAR; test: flow cytometry; clonal supernatant on anti-BCMA CAR T cells, FITC goat anti-rabbit F(ab')2 detection
[6] = biological target: CAR-3; test: flow cytometry; clonal supernatant on control CAR-3 T cells, FITC goat anti-rabbit F(ab')2 detection
[7] = biological target: BCMA-AM2; test: flow cytometry; supernatant on CAR-transduced Jurkat cells (BCMA-AM2), FITC goat anti-rabbit F(ab')2 detection
[8] = biological target: BCMA-AM1; test: flow cytometry; supernatant on CAR-transduced Jurkat cells (BCMA-AM1), FITC goat anti-rabbit F(ab')2 detection

Row | Binder | FITC+ (gate frequency) [1] | FITC+ (gate frequency) [2] | CAR+ (gate frequency) [3] | FITC+ (gate frequency) [4] | CAR+ (gate frequency) [5] | CAR+ (gate frequency) [6] | FITC+ (gate frequency) [7] | FITC+ (gate frequency) [8]
1 | Clone 9-1 (antibody, V domains shown) VH: QQQLEESGGGLVKPGGTLTLTCTASGFSFSSGQWMCWVRQAPGKGLELIACIYTSAGGSTHYASWATGRFTISKTSSTTVTLQMTSLTAADTATYFCARDPYLLSAGPDNNLWGPGTLVAVSS VL: ALVMTQTPSPVSAAVGGTVTINCQASQSIGSDFTWWQQKPGQPPKLLIYWASTLASGVSSRFKGSGSGTQFTLTISDLECDDAATYYCAGYVSYSDDGNAFGGGTEVVVK | 0.14 | 75.2 | 0.18 | 95.3 | 60.9 | 0.11 | – | –
2 | Clone 80-7 (antibody, V domains shown) VH: QEQLEESGGDLVKPEGSLTLTCTASGFSFSSAYWICWVRQVPGKGLEWIACIYTGSGGRSHYASWAKGRFTISKTSSTTVTLQMTSLTAADTATYFCARDPYILSAGPDNVLWGPGTLVTVSS VL: ALVMTQTPSPVSAAVGGTVTINCQASQSIGSDLGWFQQKPGQPPKLLIYWASTLASGVPSRFEGSGSGTQFTLTISDLECDDAATYYCAGYESLSNDGNAFGGGTEVVVK | – | – | 0.22 | – | 31.5 | 0.067 | – | –
3 | Clone 83-3 (antibody, V domains shown) VH: QSLEESGGDLVKPGASLTLTCTASGFSFNLRHYMCWVRQAPGKGLEWIGCVHGGSSSGTYYASWAKGRFTISKTSSTTVTLQMTSLTAADTATYFCTREDDIMMAGEFGLWGPGTLVTVSS VL: DIVMTQTPSSVSEPVGGTVTIKCQASEDIESYLVWYQQKPGQPPKLLIYQASNLASGVPSRFSGSGSGTEYTLTISDLECADAATYYCQSYIEGGVDVVFGGGTEVVVK | – | – | – | – | – | – | 90.2 | 83.4
4 | Clone 89-10 (antibody, V domains shown) V domain 1: QEQLVESRGGLVKPGGSLTLTCKASGFSFSTGYYACWVRQAPGKGLELSACVDTGSGDTFYASWARGRFTISKTSSSTVTLQMTSLTVADTATYFCARTALVMTDFYFNLWGPGTLTTVSS V domain 2: ALVMTQTPASVEAAVGGTVTINCQASQWISNELSWYQQKPGQPPKLLIYLASTLASGVPSRFKGSGSGTEFTLTISDLECADAATYYCQQGYNIGHLDNAFGGGTEVVVK | – | – | – | – | – | – | 0.042 | 82.7
5 | Clone 63-1 (antibody, V domains shown) VH: QEQLEESGGDLVKPGASLTLTCTASGFSFSSGYWICWVRQAPGKGLEWIACIYTRSGGSTHYASWAKGRFTTSKTSSTTVTLQMTSLTAADMATYFCARDPYVLSAGPDNVLWGPGTLVTVSS VL: ALVMTQTPSPVSAAVGGTVTINCQASESIGSDLGWYQQKPGQPPKFLIYWASTLVSGVPSRFEGSGSGTQFTLTISDLECDDAATYYCAGYESLSNDGNAFGGGTEVVVK | – | – | 0.1 | – | 58.2 | 0.14 | – | –
6 | Clone 137-2 (antibody, V domains shown) VH: QEQLVESGGGLVQPEGSLTLTCTASGFSFSLSNWICWVRQAPGKGLEWVACIYVSVSGNTRYASWAKGRFTISETSSTTVTLQMTGLTAADTATYFCARDPFSLVSVDRSLWGPGTLVTVSS VL: ALVMTQTPSPVSAAVGGTVTINCQASQSIGSDLSWFQQKPGQPPKLLMYWASSLASGVPSRFKGSGSGTQFTLTISDLECDDAATYYCAGYVNYNNDDAAFGGGTEVVVK | – | – | 0.11 | – | 42.4 | 0.093 | – | –

Now from value to binder:

Row | FITC+ (gate frequency) [1] | FITC+ (gate frequency) [2] | CAR+ (gate frequency) [3] | FITC+ (gate frequency) [4] | CAR+ (gate frequency) [5] | CAR+ (gate frequency) [6] | FITC+ (gate frequency) [7] | FITC+ (gate frequency) [8] | Binder
7 | – | – | 0.067 | – | 51.8 | 0.13 | – | – | Clone 9-9 (antibody, V domains shown) VH: QQQLEESGGGLVKPGGTLTLTCTASGFSFSSGQRMCWVRQAPGKGLELIACIYTSAGGSTHYASWATGRFTISKTSSTTVTLQMTSLTAADTATYFCARDPYLLSAGPDNNLWGPGTLVAVSS VL: ALVMTQTPSPVSAAVGGTVTINCQASQSIGSDFTWWQQKPGQPPKLLIYWASTLASGVSSRFKGSGSGTQFTLTISDLECDDAATYYCAGYVSYSDDGNAFGGGTEVVVK
8 | – | – | 0.09 | – | 41.7 | 1.81 | – | – | Clone 18-4 (antibody, V domains shown) VH: QERLVESGGGLVQPEGSLTLTCTASGLTLSNYWLCWVRQAPGKGLEWIACIYTGNYGSAYYANWVKGRFTISKASSTTVTLQMTSLTAADTATYFCARDPYTLTNVDVLWGPGTLVTVSS VL: ALVMTQTPSPVSAAVGGTVTINCQASQSIGSDLAWYQQRPGQPPKLLIYWASTLASGVPSRFSGSGSGTQFTLTISDLECDDAATYYCTGYISYNDDNAAFGGGTEVVVK
9 | – | – | 0.067 | – | 47.1 | 0.15 | – | – | Clone 154-7 (antibody, V domains shown) VH: QSLEESGGDLVKPEGSLTLTCTASGFSFSSSYWICWVRQAPGKGLEWIACIYTANSGRTVYASWAKGRFTISKTSSTTVTLQLPSLTAADTATYFCARDIYVLTTTDNLWGPGTLVTVSS VL: ALVMTQAPSPVSAAVGGTVTISCQASQPIGSDLVWYQQKPGQPPKLLIYYASDLASGVPSRFKGSGSGTRFTLTISGVECDDAATYYCAGYKNYDHDDCGFGGGTEVVVK
10 | – | – | – | – | – | – | 91.6 | 82.4 | Clone 77-9 (antibody, V domains shown) VH: QSLEESGGALVKPGASLALTCTASGFSFNLRHYMCWVRQAPGKGLEWIGCVHGGSSGGTYYASWTKGRFTISKTSSTTVTLQMTSLTAADTATYFCAREDDIMMAGEFSLWGPGTLVTVSS VL: DIVMTQTPSSVEASVGGTVTIKCQASEDIESYLVWYQQKPGQPPKLLIYQASNLASGVPSRFYGSGSGTQFTLTISDLECADASTYYCQSYVEGGVDVVFGGGTEVVVK
